In patent US20240301086A1 (APTEVO RESEARCH AND DEVELOPMENT, published 2024):

T1: Full-length cynomolgus monkey PSMA (TSC308), on cells (cynomolgus monkey, UniProt Q04609 1-750 (human entry))
T1 construct: also called cyno PSMA; CHOK1SV/cynoPSMA
T1 chain: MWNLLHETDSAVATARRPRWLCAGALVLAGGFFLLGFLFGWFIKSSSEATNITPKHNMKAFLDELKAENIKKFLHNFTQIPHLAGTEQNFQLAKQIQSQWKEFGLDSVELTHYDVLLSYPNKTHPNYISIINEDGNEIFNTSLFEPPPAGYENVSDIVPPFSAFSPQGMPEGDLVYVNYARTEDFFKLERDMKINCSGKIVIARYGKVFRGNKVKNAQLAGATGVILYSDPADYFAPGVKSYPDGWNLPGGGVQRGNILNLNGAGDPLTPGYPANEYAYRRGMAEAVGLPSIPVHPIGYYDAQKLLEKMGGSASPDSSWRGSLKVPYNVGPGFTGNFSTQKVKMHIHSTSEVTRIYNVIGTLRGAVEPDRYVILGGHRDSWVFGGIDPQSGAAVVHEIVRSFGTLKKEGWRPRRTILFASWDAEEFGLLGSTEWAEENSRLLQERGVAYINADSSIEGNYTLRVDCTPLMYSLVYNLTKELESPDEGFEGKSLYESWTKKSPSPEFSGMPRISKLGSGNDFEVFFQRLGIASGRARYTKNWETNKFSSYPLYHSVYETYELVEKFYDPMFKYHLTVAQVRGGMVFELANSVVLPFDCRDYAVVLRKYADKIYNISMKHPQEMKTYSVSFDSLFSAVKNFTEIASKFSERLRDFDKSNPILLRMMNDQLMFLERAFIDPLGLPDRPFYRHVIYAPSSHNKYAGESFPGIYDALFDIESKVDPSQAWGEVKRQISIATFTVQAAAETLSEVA


Legend:
human Fcγ receptor I = human Fcγ receptor I (human, UniProt P12314 16-288); experiment: SPR (Biacore T200), construct amine-coupled, Fcγ receptor as analyte
Method: (§1) The Fc region incorporated into anti-PSMA bispecific constructs contained mutations intended to reduce or abolish binding to common human and cynomolgus Fc gamma receptors. SPR experiments were conducted at 25° C. in HBS-EP+ with 0.2% BSA buffer on a Biacore T200 system to evaluate the impact of these mutations on binding. For these experiments, three flow cells of a CM5 sensor chip were immobilized with anti-PSMA bispecifics by standard amine coupling to a response level of ˜2000 RU. A blank immobilization was performed on flow cell #1 for purposes of background signal subtraction. Both human and cynomolgus monkey Fcγ receptors (purchased from R&D Systems) were diluted in HBS-EP+ with 0.2% BSA to 4-6 μM and then flowed as analytes at 30 μL/min for 120 seconds followed by a 240 second dissociation step. No regeneration step was required. Blank-subtracted sensorgrams were visually inspected for binding to each of the Fcγ receptor proteins. […] Attenuated binding to Fcγ receptors IIA (both polymorphic variants) and IIB/C was observed. PSMA01107 and PSMA01108 share the same Fc amino acid sequence and therefore equivalent Fcγ receptor binding behavior was expected.

[1] = target: human Fcγ receptor IIIA, V176 variant (human, UniProt P08637 17-208); experiment: as above
Method: as §1

[2] = target: human Fcγ receptor IIIA, F176 variant (human, UniProt P08637 17-208); experiment: as above
Method: as §1

human Fcγ receptor IIIB = human Fcγ receptor IIIB (human, UniProt O75015 17-200); experiment: as above
Method: as §1

[3] = target: T2, cynomolgus Fcγ receptor III (cynomolgus monkey, UniProt Q8SPW2 17-208); experiment: SPR (Biacore T200), construct amine-coupled, soluble cyno Fcγ receptor as analyte
T2 construct: Called recombinant, soluble; also called Cyno RIII
Method: as §1

[4] = target: T3, Full-length Human PSMA (TSC435), on cells (human, UniProt Q04609 1-750); experiment: flow cytometry on C4-2B cells, PE goat anti-human IgG Fc secondary, MFI (median)
T3 construct: also called CHOK1SV/huPSMA; PSMA on C4-2B, 22RV1, LNCaP, MDA-PCa-2b cells
Method: (§2) Constructs were initially tested in CD3ε and PSMA binding assays on Jurkat and C4-2B cells. Cells were labelled at approximately 100,000 cells per well, in 96-well plates, with serial dilutions of bispecific constructs ranging in concentration from of 0.1 to 300 nM, for 30 min on ice. Primary label was followed by washes and incubation with PE-labeled minimum cross species reactive secondary antibody, goat anti-human IgG Fcγ, F(ab′)2 (Jackson Laboratory) for 30 minutes on ice. Washes and incubation were done in staining buffer (PBS with 0.2% BSA and 2 mM EDTA). Cells were collected using an BD™ LSRII or a BD FACSymphony™ flow cytometer (BD Biosciences) and analyzed by FlowJo flow cytometry analysis software. Median fluorescence intensity (MFI) of bound molecules on cells was determined after exclusion of doublets. Results were plotted and nonlinear regression analysis to determine EC50 values was performed using GraphPad Prism 7© graphing and statistics software.

[5] = target: T3, Full-length Human PSMA (TSC435), on …; experiment: as above; remark: listed apart in the source
Method: as §2

[6] = target: T4, human CD3ε in the TCR/CD3 complex on Jurkat cells (human, UniProt P07766 23-207); experiment: flow cytometry on Jurkat cells, PE goat anti-human IgG Fc secondary, MFI (median)
T4 construct: whole, on cells; On the cells it stands in the whole TCR/CD3 complex; also called CD3 (+) cells; CD3-expressing Jurkat cells
Method: as §2

[7] = target: T4, human CD3ε in the TCR/CD3 complex on …; experiment: as above; remark: listed apart in the source
Method: as §2

[8] = target: T4, human CD3ε in the TCR/CD3 complex on …; experiment: flow cytometry, drawn table 'On- Cell Binding Parameters', row 'Human CD3 binding affinity'
Method: as §2

[9] = target: T3, Full-length Human PSMA (TSC435), on …; experiment: flow cytometry, drawn table 'On- Cell Binding Parameters', row 'Human PSMA binding affinity'
[10] = target: T1, Full-length cynomolgus monkey PSMA …; experiment: flow cytometry on CHO-CynoPSMA cells, Median (PE); drawn table row 'Cyno PSMA binding affinity'

T4 sequence (P07766 23-207, one chain of several): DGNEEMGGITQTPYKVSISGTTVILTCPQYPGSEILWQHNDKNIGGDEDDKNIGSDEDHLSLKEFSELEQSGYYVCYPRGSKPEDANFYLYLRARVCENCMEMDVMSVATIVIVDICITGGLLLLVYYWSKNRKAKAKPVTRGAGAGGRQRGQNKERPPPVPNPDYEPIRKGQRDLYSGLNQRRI
Chain of human Fcγ receptor I (P12314 16-288): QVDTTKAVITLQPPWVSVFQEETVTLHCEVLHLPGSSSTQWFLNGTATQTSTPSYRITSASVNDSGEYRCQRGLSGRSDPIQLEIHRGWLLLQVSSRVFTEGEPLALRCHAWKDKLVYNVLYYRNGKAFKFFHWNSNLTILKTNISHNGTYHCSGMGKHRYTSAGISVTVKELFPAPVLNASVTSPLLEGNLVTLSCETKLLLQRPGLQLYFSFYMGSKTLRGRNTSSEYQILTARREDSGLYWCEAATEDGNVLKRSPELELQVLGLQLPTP
Chain of human Fcγ receptor IIIA, V176 variant (P08637 other isoform, or with tags, fused parts or gaps mutant): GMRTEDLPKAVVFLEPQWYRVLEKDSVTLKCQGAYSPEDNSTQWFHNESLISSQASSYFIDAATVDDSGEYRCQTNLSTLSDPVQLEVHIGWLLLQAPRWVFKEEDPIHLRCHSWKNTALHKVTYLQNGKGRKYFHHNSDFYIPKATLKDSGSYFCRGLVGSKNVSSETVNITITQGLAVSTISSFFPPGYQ
Chain of human Fcγ receptor IIIA, F176 variant (P08637 17-208, change not shown): as the sequence (P08637 other isoform, or with tags, fused parts or gaps mutant) above, with V160F counted along it
T2 sequence (Q8SPW2 17-208): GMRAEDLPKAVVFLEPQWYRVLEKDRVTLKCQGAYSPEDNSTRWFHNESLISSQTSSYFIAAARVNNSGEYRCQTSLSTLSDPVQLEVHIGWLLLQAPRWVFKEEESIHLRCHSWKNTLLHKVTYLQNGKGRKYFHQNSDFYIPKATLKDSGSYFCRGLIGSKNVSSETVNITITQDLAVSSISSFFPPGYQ
Chain of human Fcγ receptor IIIB (O75015 17-200): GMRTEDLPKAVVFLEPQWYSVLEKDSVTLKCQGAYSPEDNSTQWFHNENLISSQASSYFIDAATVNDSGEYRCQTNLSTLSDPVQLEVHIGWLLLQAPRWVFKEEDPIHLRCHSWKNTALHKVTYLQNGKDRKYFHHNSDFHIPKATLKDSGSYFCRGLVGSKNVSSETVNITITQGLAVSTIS

binding result (human Fcγ receptor I)	binding result [1]	binding result [2]	binding result (human Fcγ receptor IIIB)	binding result [3]	EC50 [4] [nM]	EC50 [5] [nM]	EC50 [6] [nM]	EC50 [7] [nM]	EC50 [8] [nM]	Max [8]	EC50 [9] [nM]	Max [9]	EC50 [10] [nM]	Max [10]	Binder
no binding (tested: 4-6 µM)	no binding (tested: 4-6 µM)	no binding (tested: 4-6 µM)	no binding (tested: 4-6 µM)	no binding (tested: 4-6 µM)	1	1	> 208	> 200	> 200	2000	1	2400	5	22000	PSMA01107 Anti-PSMA scFv x Fc x linker x Anti CD3 scFv; Anti PSMA scFv x Fc (bispecific antibody, Heterodimer, bivalent for PSMA and monovalent for CD3 (VH-VL scFv at the C-terminus); also called PSMA1107) chain 1: QVQLVQSGAEVKKPGASVKVSCKASGYTFTDYYMHWVRQAPGQGLEWMGYFNPYNDYTRYAQKFQGRVTMTRDTSTSTVYMELSSLRSEDTAVYYCARSDGYYDAMDYWGQGTTVTVSSGGGGSGGGGSGGGGSGGGGSDIQMTQSPSSLSASVGDRVTITCRASKSISKYLAWYQQKPGKAPKLLIHSGSSLESGVPSRFSGSGSGTEFTLTISSLQPDDFATYYCQQHIEYPWTFGQGTKVEIKEPKSSDKTHTCPPCPAPPAAAPSVFLFPPKPKDTLMISRTPEVTCVVVDVSHEDPEVKFNWYVDGVEVHNAKTKPREEQYNSTYRVVSVLTVLHQDWLNGKEYKCAVSNKALPAPIEKTISKAKGQPREPQVYTLPPSRDELTKNQVSLWCLVKGFYPSDIAVEWESNGQPENNYKTTPPVLDSDGSFFLYSKLTVDKSRWQQGNVFSCSVMHEALHNHYTQKSLSLSPGGGGSPSQVQLVQSGAEVKKPGASVKVSCKASGYTFTRSTMHWVRQAPGQGLEWIGYINPSSAYTNYAQKFQGRVTLTADKSTSTAYMELSSLRSEDTAVYYCASPQVHYDYNGFPYWGQGTLVTVSSGGGGSGGGGSGGGGSGGGGSDIQMTQSPSSLSASVGDRVTITCRASSSVSYMNWYQQKPGKAPKRWIYDSSKLASGVPSRFSGSGSGTDFTLTISSLQPEDFATYYCQQWSRNPPTFGQGTKVEIKRS chain 2: QVQLVQSGAEVKKPGASVKVSCKASGYTFTDYYMHWVRQAPGQGLEWMGYFNPYNDYTRYAQKFQGRVTMTRDTSTSTVYMELSSLRSEDTAVYYCARSDGYYDAMDYWGQGTTVTVSSGGGGSGGGGSGGGGSGGGGSDIQMTQSPSSLSASVGDRVTITCRASKSISKYLAWYQQKPGKAPKLLIHSGSSLESGVPSRFSGSGSGTEFTLTISSLQPDDFATYYCQQHIEYPWTFGQGTKVEIKEPKSSDKTHTCPPCPAPPAAAPSVFLFPPKPKDTLMISRTPEVTCVVVDVSHEDPEVKFNWYVDGVEVHNAKTKPREEQYNSTYRVVSVLTVLHQDWLNGKEYKCAVSNKALPAPIEKTISKAKGQPREPQVYTLPPSRDELTKNQVSLSCAVKGFYPSDIAVEWESNGQPENNYKTTPPVLDSDGSFFLVSKLTVDKSRWQQGNVFSCSVMHEALHNHYTQKSLSLSPG
no binding (tested: 4-6 µM)	no binding (tested: 4-6 µM)	no binding (tested: 4-6 µM)	no binding (tested: 4-6 µM)	no binding (tested: 4-6 µM)	7	7	2	2	2	15000	10	1400	20	6000	TSC266 Anti PSMA scFv x Anti CD3 scFv ADAPTIR (bispecific antibody, The anti-PSMA domain is that of PSMA01012 and the anti-CD3 domain is DRA222; also called unoptimized parent construct; TSC266 control (PSMA × CD3 bispecific protein)) DIQMTQSPSAMSASVGDRVTITCRASKSISKYLAWFQQKPGKVPKLRIHSGSTLQSGVPSRFSGSGSGTEFTLTISSLQPEDFATYYCQQHIEYPWTFGQGTKVEIKRGGGGSGGGGSGGGGSQVQLVQSGAEVKKPGASVKVSCKASGYTFTDYYMHWVRQAPGQGLEWMGYFNPYNDYTRYAQKFQGRVTMTRDTSISTAYMELSSLRSDDTAVYYCARSDGYYDAMDYWGQGTTVTVSSSEPKSSDKTHTCPPCPAPEAAGAPSVFLFPPKPKDTLMISRTPEVTCVVVDVSHEDPEVKFNWYVDGVEVHNAKTKPREEQYNSTYRVVSVLTVLHQDWLNGKAYACAVSNKALPAPIEKTISKAKGQPREPQVYTLPPSRDELTKNQVSLTCLVKGFYPSDIAVEWESNGQPENNYKTTPPVLDSDGSFFLYSKLTVDKSRWQQGNVFSCSVMHEALHNHYTQKSLSLSPGQRHNNSSLNTGTQMAGHSPNSQVQLVESGGGVVQPGRSLRLSCKASGYTFTRSTMHWVRQAPGQGLEWIGYINPSSAYTNYNQKFKDRFTISADKSKSTAFLQMDSLRPEDTGVYFCARPQVHYDYNGFPYWGQGTPVTVSSGGGGSGGGGSGGGGSAQDIQMTQSPSSLSASVGDRVTMTCSASSSVSYMNWYQQKPGKAPKRWIYDSSKLASGVPARFSGSGSGTDYTLTISSLQPEDFATYYCQQWSRNPPTFGGGTKLQITSSS
